From patent publication US20240317865A1, “ANTIBODIES AGAINST INTEGRIN ALPHA 11 BETA 1” (MOMENTA PHARMACEUTICALS, INC., priority 2020, published 2024)

B1: 79E3E3: rat anti-α11β1 mAb; VH SEQ ID NO: 145, VL SEQ ID NO: 146 (antibody, V domains shown)
VH: MDWLWNLLFLMVVAQSAQAQIQLVQSGPEVKKPGESVKISCKASGYTFTDYAMNWVKQAPGNGLKWMGWINTQTGKPTYADDFKQRFVFSLETSARTTYLQINNLNIEDTATYFCTRLGTGNTKGFAYWGQGTLVTVSS
VL: MESQTHVLISLLLCVSGTCGDILINQSPASLTVSAGERVTMSCKSSQSLLYSENNQDYLAWYQQKPGQFPKLLIYGASNRHTGVPDRFTGSGSGTDFTLTISSVQAEDLADYYCEQTYRYPFTFGSGTKLEIK
B2: 1994_01_C07: fully human anti-α11β1 mAb from phage display; HCDR3 SEQ ID NO: 267, LCDR3 SEQ ID NO: 271 (antibody, V domains shown)
VH: QVQLVQSGAEVKKPGASVKVSCKASGYTFTSYGISWVRQAPGQGLEWMGWISAYNGNTNYAQKLQGRVTMTTDTSTSTAYMELRSLRSDDTAAYYCARVTGITGTTIDPWGQGTMVTVSS
VL: DIQMTQSPSSLSASVGDRVTITCRASQSISSYLNWYQQKPGKAPKLLIYDASSLESGVPSRFSGSGSGTEFTLTISSLQPDDFAVYYCQQYNNWPQTFGQGTKVEIK
B3: 40G10H11: rat anti-α11β1 mAb; VH SEQ ID NO: 157, VL SEQ ID NO: 158 (antibody, V domains shown)
VH: MDIRLSLGFLVLFIKGDQCAVQLVESGGGLVQPGRSLKLSCAASRITFTDYYMAWVRQAPTKGLEWVATISSDGGDTFYRDSVKGRFTISRDNAKSTLYLQMVSLRSEDTATYYCSTDRGAQFGYWGQGTLVTVSS
VL: MAPVQLLGLLLIWLPAMRCDIQMTQSPSFLSASVGDRVSINCKASQNVHENLNWYQQKLGEAPKRLIYNTNNLQTGIPSRFSGSGSGADYTLTISSLQPEDFATYFCLQHNAFPYTFGPGTKLELK
B4: 16E10: rabbit anti-α11β1 mAb; heavy chain SEQ ID NO: 161, light chain SEQ ID NO: 162 (antibody)
heavy: METGLRWLLLVAVLKGVQCQSLEESGGDLVKPGASLTLTCRVSGFSFSSSYYMCWVRQAPGKGLEWIACIGTTRGSTYYATWAKGRFTISKISSTTVTLQMTSLTDADTATYFCARDATGYRINTIGLYFNLWGPGTLVTVSSGQPKAPSVFPLAPCCGDTPSSTVTLGCLVKGYLPEPVTVTWNSGTLTNGVRTFPSVRQSSGLYSLSSVVSVTSSSQPVTCNVAHPATNTKVDKTVAPSTCSKPMCPPPELPGGPSVFIFPPKPKDTLMISRTPEVTCVVVDVSQDDPEVQFTWYINNEQVRTARPPLREQQFNSTIRVVSTLPIAHQDWLRGKEFKCKVHNKALPAPIEKTISKARGQPLEPKVYTMGPPREELSSRSVSLTCMINGFYPSDISVEWEKNGKAEDNYKTTPTVLDSDGSYFLYSKLSVPTSEWQRGDVFTCSVMHEALHNHYTQKSISRSPGK
light: MDTRAPTQLLGLLLLWLPGARCAFELTQTPSSVEAAVGGTPTIKCQASQTIYSYLSWYQQKPGQPPKLLIYEASKLASGVPSRFSGSGSGTDYTLTISDLECADAATYYCQSYHGTASTEYNTFGGGTEVVVRGDPVAPTVLIFPPAADQVATGTVTIVCVANKYFPDVTVTWEVDGTTQTTGIENSKTPQNSADCTYNLSSTLTLTSTQYNSHKEYTCKVTQGTTSVVQSFNRGDC

Assays:
[1] = molecular target: T1, α11β1 I Domain (Homo sapiens, UniProt Q9UKX5); experiment: ELISA binding to in-house generated α11β1 I domain; parameters: An in-house generated I domain of α11β1 was used; made in house; settings: in words
T1 sequence (Q9UKX5 164-345 limits assumed): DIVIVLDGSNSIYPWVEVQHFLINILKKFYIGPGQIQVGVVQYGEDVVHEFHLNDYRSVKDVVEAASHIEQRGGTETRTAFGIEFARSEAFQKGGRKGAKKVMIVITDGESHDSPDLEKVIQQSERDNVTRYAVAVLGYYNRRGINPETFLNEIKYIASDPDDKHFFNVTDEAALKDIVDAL
Procedure: 0.25 μg/mL of target antigen (recombinant human or mouse α11β1) was plated in a 96-well plate over night at 4° C. Plates were washed (PBS with 0.1% Tween-20), blocked (PBS with 2% BSA and 0.05% Tween-20) for 1 hour at room temperature and incubated with a range of antibody concentrations for 1 hour at room temperature. Subsequently, plates were washed and incubated with biotinylated anti-rabbit/mouse/human IgG in a 1:1000 dilution buffer and incubated for 1 hour at room temperature. After washing the plates, Streptavidin HRP was added at 1:200 in dilution buffer and incubated for 1 hour at room temperature. Ultra TMB ELISA substrate solution was added and the plates incubated for 5 minutes on a plate shaker. The reaction was stopped by adding stop solution to each well and plates were read at 450 nm.
Data was also collected to determine whether antibodies of interest bind to the I domain of α11β1. An in-house generated I domain of α11β1 was used. […] Mouse antibodies 10-F23, 10-L15, 7-O8, 6-A12, 9-G05 and 9-E16 and rabbit antibodies 7-H12 and 2-D3 were also tested for binding against the in-house generated α11β1 I domain. FIGS. 3A and 3B show graphs illustrating binding data from exemplary mAbs.

[2] = system: A549 cell xenografts; experiment: Tumor xenograft model; type: in vivo, C.B-17 SCID mice; settings: A549 xenograft, SCID mice
Procedure: Fifty-six female C.B-17 SCID mice were inoculated with A549 cells (5×10^6 cells/mouse) subcutaneously in the flank. Once tumor volume reached ˜100 mm^3, animals were randomized amongst 7 groups of 8 mice each. Mice were then treated intraperitonealy every 3 days for a total of 7 doses with isotype controls or novel mAbs 79E3E3, 16E10 and 9G04 (2 and 20 mg/kg) or with docetaxel at 10 mg/kg every 4 days for a total of 6 doses. Tumor volumes and body weights were recorded twice a week with a gap of 2-3 days in between two measurements until any of the following conditions defined were observed: loss of 20% or more body weight; tumors that inhibit normal physiological function such as eating, drinking, and mobility; ulcerated tumors; tumor size greater than 2000 mm^3 and clinical observations of prostration, paralysis, seizures and hemorrhages.
In this example, studies were performed to determine if inhibition of α11β1 function with mAb results in xenograft growth inhibition. As shown in FIG. 16 and Table 4, blocking α11β1 on mouse CAFs impeded xenograft growth in SCID mice.

[3] = molecular target: T1, α11β1 I Domain; experiment: SPR binding to α11β1 I Domain; settings: in words
Procedure: (§1) The affinity of antibodies for human α11β1 was measured by surface plasmon resonance assay (SPR). Affinity was measured at pH 7.6 and 25° C. with a Biacore T200 instrument. Anti-HIS antibody was immobilized on the SPR sensor surface using EDC/NHS covalent attachment. HIS-tagged human α11β1 was captured on the sensor surface and a single-cycle kinetics assay was used. Increasing concentrations of test antibody were injected in series over the sensor-bound α11β1. Dissociation was monitored for 1000 seconds. A sensor surface with only anti-HIS antibody and a series of blank injections were used to double-reference subtract the data. A 1:1 Langmuir model was fit to the data to estimate the kinetic association and dissociation constants. The affinity (equilibrium dissociation constant) of the interaction was calculated by dividing the kinetic dissociation constant by the kinetic association constant. Between injection cycles α11β1 and bound antibody were removed with an injection of 10 mM glycine at pH 1.5.
(§2) The binding affinity of antibodies for the α11β1 Headpiece and α11β1 I Domain as measured by SPR is shown in FIG. 10A and FIG. 10B, respectively.

[4] = system: CHO-K1 human α11-mediated rat tail type I collagen gel contraction; experiment: Collagen gel contraction assay; type: cell-based; settings: compared to untreated condition
Procedure: 24-well plates were blocked with 2% BSA in PBS overnight at 37° C. The following day, the plates were washed 3 times with PBS before being used in the assay. Human CHO cell lines expressing α11 were harvested and resuspended at 1.25×10^6 in ExpiCHO Expression Medium (Gibco™ Cat #A2910002). The collagen gel solution was prepared by diluting 3 mg/mL stock collagen type I (Gibco™ Collagen I Rat Protein, Tail Cat #A1048301) to 1 mg/mL in the media containing the CHO cells. Sodium hydroxide was added to the solution to neutralize the pH and 400 μL of the collagen solution was added to each well of the 24-well plates. For the wells where the antibodies were included in the collagen gel solution, CHO cells were prepared at 2.5×10^6 and the antibodies were prepared at 2× final concentration in ExpiCHO media. The cells and antibodies were then combined 1:1 before the addition of the stock collagen type 1. The gels were allowed to polymerize for 60 minutes at 37° C. Antibodies were added to the ExpiCHO media, which was then layered on top of the polymerized gel (400 μL/well). The gels were incubated for 6 days at 37° C. before gel contraction was quantified. Images of each well were analyzed using Image J and gel contraction was determined as a percentage of the initial gel area.
Selected exemplary antibodies were tested for the ability to inhibit cell-mediated 3D gel contraction because this ability is directly linked to the functionality of the exemplary antibodies.

[5] = system: human Precision-Cut Kidney Slices (PCKS); experiment: Precision-Cut Kidney Slices (PCKS); type: cell-based; settings: 72- and 96-hour time points at each dose tested (1, 10 and 50 μg/mL)
Procedure: PCKS were prepared from explanted fibrotic human kidney tissue and rested for 24 hours to allow the post-slicing stress period to elapse before experiments began. PCKS were cultured with TGF-β1 (3 ng/mL) and PDGFββ (50 ng/mL) in the presence or absence of Alk5i (10 μM, positive control), test anti-α11β1 antibodies over three doses (1, 10 and 50 μg/mL) or in the presence of IgG control antibodies at a single high dose. PCKS culture media was harvested every 24 hours for a total of 3 time points. Levels of Collagen type I α1 (col1a1) in the tissue culture supernatants were quantified using R&D Duoset ELISA kits. Statistics were performed using Two-way ANOVA followed by Dunnett's multiple comparisons test.
As described in the methods above, PCKS were prepared from explanted fibrotic human kidney tissue and rested for 24 hours to allow the post-slicing stress period to elapse before experiments began. PCKS were cultured with TGF-β1 (3 ng/ml) and PDGFββ (50 ng/mL) in the presence or absence of Alk5i (10 μM, positive control), test anti-α11β1 antibodies over three doses (1, 10 and 50 μg/mL) or in the presence of IgG control antibodies at a single high dose. PCKS culture media was harvested every 24 hours for a total of 3 time points. Levels of Collagen type I α1 (col1a1) in the tissue culture supernatants were quantified using R&D Duoset ELISA kits. […]

[6] = system: α11β1 Headpiece; experiment: SPR binding to α11β1 Headpiece; parameters: species or system human; settings: in words
Procedure: as §1, §2

[7] = system: α1β1, α2β1 and/or α10β1; experiment: Counter-screen against other collagen receptors (off target); type: binding, human
Procedure: Wistar rats were immunized with recombinant human α11β1 protein. An enzyme-linked immunosorbent assay (ELISA) was used to test an immune response against target human and mouse proteins. Subsequently, cell fusion (by electro fusion) was performed with animals that produced a good immune response. All fused cells were plated in a 96-well plate and supernatants were screened by ELISA against soluble human and mouse α11β1. Positive clones were counter-screened against human α1β1, α2β1 and α10β1. […] Purified antibodies were then generated from the selected clones and heavy chain and light chain variable domain sequences were obtained from each purified antibody.
10 mice from 5 different strains were immunized with an appropriate mixture of human α11β1, mouse α11β1 and tolerance breaking protein. Plasma titers were evaluated by ELISA against a mixture of human and mouse α11β1. Popliteal, inguinal, and iliac lymph nodes were collected. ELISA-positive anti-human/mouse α11β1 hybridomas were expanded and subjected to a secondary screen against human and mouse α11β1, control HIS protein, and a counter-screen was performed against human […], α2β1 and α10β1. Supernatant IgG concentration was sufficient for functional screening. […]

Row | Molecule | Binding to the I domain of α11β1 [1] | Tumor growth inhibition compared to isotype control [2] | Binding to α11β1 I domain (SPR) [3] | Inhibition of CHO-hu α11-mediated collagen gel contraction [4] | Inhibition of col1a1 secretion [5] | Binding to α11β1 headpiece domain (SPR) [6] | Cross-reactivity with other collagen receptors [7]
1 | B1 | high and I-domain binder | significantly inhibited tumor growth | do bind | inhibited |  |  | 
2 | B2 |  |  | do not bind | inhibited | significant inhibition of col1a1 secretion | do not bind | 
3 | B3 | not found to be an I-domain binder |  |  |  |  |  | does cross-react with other collagen receptors
4 | B4 |  | no significant inhibition of tumor growth | do not bind | inhibited |  | do not bind | 
